Patent publication US20220251232A1 (INSERM INSTITUT NATIONAL DE LA SANT ET DE LA RECHERCHE M …, published 2022)

Biological target: T1, human CD25 (Interleukin-2 receptor alpha chain) (human, UniProt P01589 22-272)
T1 sequence (looked up): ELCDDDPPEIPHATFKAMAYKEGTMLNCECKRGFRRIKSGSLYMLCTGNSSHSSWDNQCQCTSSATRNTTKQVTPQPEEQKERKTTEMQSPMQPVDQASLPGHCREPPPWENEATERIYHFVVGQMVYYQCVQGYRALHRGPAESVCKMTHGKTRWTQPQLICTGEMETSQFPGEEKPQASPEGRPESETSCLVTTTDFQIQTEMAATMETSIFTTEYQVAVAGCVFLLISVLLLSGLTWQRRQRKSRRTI
Experiment: cell-based or functional assay

B1: ALD25H2 anti-CD25 antibody (antibody, V domains shown)
VH: EVQLVESGGGLVQPGRSMKLSCAASGFTFSNHAMAWVRQAPKKGLEWVAYISYDGDNTYYRDSVKGRFTISRDNAKSTLYLQIDSLRSEDTATYYCTTGGNSGYDWGQGVMVTVSS
VL: DIQMTQSPSFLSASVGDRVTINCKASQNVNKFVNWYQQKLGEAPRRLIYGTNSLQTGIPSRFSGSGSGTDYTLTISSLQPEDVATYFCQQYSSWPWTFGGGTKLELK
For B1, the “IL-2 induced T-cell proliferation, Mean (control = 100)” value (“IL-2 induced T-cell proliferation” for short) was 81.7.

B2: ALD25H1 anti-CD25 antibody (antibody, V domains shown)
VH: EVQLVESGGGLVQPGRSMKLSCAASGFPFSDHAMAWVRQAPKKGLQWVAYISYDGDNTYYRDSVKGRFTISRDNARSTLFLQMDSLRSEDTATYYCTTGGNSGYDWGQGVMVTVSS
VL: DIQMTQSPSFLSASVGDRVTINCKASQNVNKFLNWYQQKLGEAPRRLIYGTNSLQTGIPSRFSGSGSGTDYTLTISSLQPEDVATYFCQQYSSWPWTFGGGTKLELK
B2 was tested, and the “IL-2 induced T-cell proliferation” value was 78.1.

B3: ALD25H4 anti-CD25 antibody (antibody, V domains shown)
VH: EVQLVESGGGLVQPGRSMKLSCAVSGFTFSNHAMAWVRQAPKKGLEWVAYISYDGDNTYYRDSVKGRFTISRDNAQSTLYLQMDSLRSEDTATYYCTTGGNSGYDWGQGVMVTVSS
VL: DIQMTQSPSFLSASVGDRVTINCKGSQNVNKFLNWYQQKLGEAPRRLIYGTNSLQTGIPSRFSGSGSGTDYTLTISSLQPEDVATYFCQQYTSWPWTFGGGTKLELK
In the case of B3, the “IL-2 induced T-cell proliferation” value is reported as 73.

B4: 7G7B6 monoclonal antibody (IL-2 non-competitive anti-CD25 antibody) (antibody, V domains shown)
VH: EVQLVESGGDLVQPRGSLKLSCAASGFTFSSYGMSWVRQTPDKRLELVATINGYGDTTYYPDSVKGRFTISRDNAKNTLYLQMSSLKSEDTAMYFCARDRDYGNSYYYALDYWGQGTSVTVSS
VL: QIVLSQSPAILSASPGERVTMTCRASSSVSFMHWLQQKPGSSPKPWIYATSNLASGVSARFSGSGSGTSYSLTITRVEAEDAATYYCQQWSSNPPAFGGGTKLEIK
With B4 the “IL-2 induced T-cell proliferation” value was 55.
